From patent US20030170895A1, “Methods of making hypermutable cells using PMSR homologs” (priority 2002, published 2003)

B1: PMSR2: human PMS2 related gene/protein, PMS2 homolog, dominant negative mismatch repair inhibitor (SEQ ID NO:17/18) (protein, listed as Homo sapiens)
chain: MAQPKQERVARARHQRSETARHQRSETAKTPTLGNRQTPTLGNRQTPRLGIHARPRRRATTSLLTLLLAFGKNAVRCALIGPGSLTSRTRPLTEPLGEKERREVFFPPRPERVEHNVESSRWEPRRRGACGSRGGNFPSPRGGSGVASLERAENSSTEPAKAIKPIDRKSVHQICSGPVVPSLRPNAVKELVENSLDAGATNVDLKLKDYGVDLIEVSGNGCGVEEENFEGFTLKHHTCKIQEFADLTQVETFGFRGEALSSLCALSDVTISTCRVSAKVGTRLVFDHYGKIIQKTPYPRPRGMTVSVKQLFSTLPVHHKEFQRNIKKKRACFPFAFCRDCQFPEASPAMLPVQPVELTPRSTPPHPCSLEDNVITVFSSVKNGPGSSR
B2: PMSR3: human PMS2 homolog, dominant negative mismatch repair inhibitor (SEQ ID NO:19/20) (protein, listed as Homo sapiens)
chain: MCPWRPRLGRRCMVSPREADLGPQKDTRLDLPRSPARAPREQNSLGEVDRRGPREQTRAPATAAPPRPLGSRGAEAAEPQEGLSATVSACFQEQQEMNTLQGPVSFKDVAVDFTQEEWRQLDPDEKIAYGDVMLENYSHLVSVGYDYHQAKHHHGVEVKEVEQGEEPWIMEGEFPCQHSPEPAKAIKPIDRKSVHQICSGPVVLSLSTAVKELVENSLDAGATNIDLKLKDYGVDLIEVSDNGCGVEEENFEGLISFSSETSHM

Key:
[1] = tested on: Yeast cells that express hPMS2-R2; assay: Chemical mutagen (EMS) plus MMR-defective yeast, ura mutant selection on 5-FOA plates; format: cell-based; conditions: EMS 0-200 pM, 30-120 minutes; PMS2-R2 cultures induced with methanol vs uninduced parental or wild type strain
Text: It has been previously documented that MMR deficiency yields to increased mutation frequency and increased resistance to toxic effects of chemical mutagens (CM) and their respective analogues such as but not limited to those as: ethidium bromide, EMS, MNNG, MNU, Tamoxifen, 8-Hydroxyguanine, as well as others listed but not limited to in publications by: Khromov-Borisov, N. N., et al. (1999) Mutat. Res. 430:55-74; Ohe, T. et al. (1999) Mutat. Res. 429:189-199; Hour, T. C. et al. (1999) Food Chem. Toxicol. 37:569-579; Hrelia, P. et al. (1999) Chem. Biol. Interact. 118:99-111; Garganta, F. et al. (1999) Environ. Mol. Mutagen. 33:75-85; Ukawa-Ishikawa S. et al. (1998) Mutat. Res. 412:99-107; www.ehs.utah.edu/ohh/mutagens; Marcelino, L. A. et al (1998) Cancer Res. 58(13):2857-2862; Koi, M. et al. (1994) Cancer Res. 54:4308-4312. Mismatch repair provokes chromosome aberrations in hamster cells treated with methylating agents or 6thioguanine, but not with ethylating agents.
Yeast cells that express hPMS2-R2 (induced or un-induced) and empty vector control cells are grown as described in Examples 5 and 6) and for 24 hours and diluted into MM medium as described above. Next, the cells in MM are incubated either with or without increasing amounts of ethyl methane sulfonate (EMS) from 0, 1, 10, 50, 100, and 200 pM. […] Mutants are selected and scored as above. […]

wild type yeast cell = conditions: mutagen treatment; Boeke et al. 1984; cited from earlier work
293 cells = assay: β-galactosidase activity from MMR-sensitive pCAR-OF reporter; format: cell-based; conditions: 293 cells expressing the homolog plus pCAR-OF reporter, grown 17 days; FIG. 5
Text: Cells in which MMR activity is decreased results in MI leading to insertion-deletion mutations within the β-galactosidase gene, a subset of which will restore the open reading frame (ORF) and produce functional enzyme. Cells are grow for 17 days and then harvested for protein lysates to measure β-galactosidase activity generated by each cell line. Cells in which a high rate of mutagenesis has occurred will produce β-galactosidase activity, while cells in which MMR activity is functional will retain background levels of enzymatic activity. Each cell line was tested in two independent experiments (experiment 1 and experiment 2). Extracts were incubated with a calorimetric galactose substrate for 1 hour. Enzyme activity as a function of substrate conversion was measured by optical density at 576 nm as described (Nicolaides, N. C. et al. (1998) Mol. Cell. Biol. 18:1635-1641). […] MI was monitored at the gene level to confirm that genetic alterations occurred within the polynucleotide repeat disrupting the β-galactosidase ORF.

[2] = tested on: Pichia pastoris yeast cells; assay: Generation of uracil requiring mutants, 5-FOA selection after methanol induction; format: cell-based
Experimental: Pichia pastoris yeast cells were transformed with pPIC3.5K vector, pPIC3.5K-PMS134, and pPIC3.5K-hR2 as follows. First, 5 ml of YPD (1% yeast extract, 2% bacto-peptone, 1% dextrose) medium was inoculated with a single colony from a YPD plate (same as YPD liquid but add 2% Difco agar to plate) and incubated with shaking overnight at 30° C. The overnight culture was used to inoculate 500 ml of YPD medium (200 ul of overnight culture) and the culture incubated at 30° C. until the optical density at 600 nm reached 1.3 to 1.5. The cells were then spun down (4000×g for 10 minutes), and then washed 2 times in sterile water (one volume each time), then the cells suspended in 20 ml of 1 M sorbitol. The sorbitol/cell suspension was spun down (4,000×g for 10 minutes) and suspended in 1 ml of 1 M sorbitol. 80 ul of the cell suspension was mixed with 5 to 10 ug of linearized plasmid DNA and placed in a 0.2 cm cuvette, pulsed length 5 to 10 milliseconds at field strength of 7,500 V/cm. Next, the cells are diluted in 1 ml of 1 M sorbitol and transferred to a 15 ml tube and incubated at 30° C. for 1 to 2 hours without shaking. Next, the cells are spun out (4,000×G for 10 minutes) and suspended in 100 ul of sterile water, and 50 ul/plate spread onto the appropriate selective medium plate. The plates are incubated for 2 to 3 days at 30° C. and colonies patched out onto YPD plates for further testing. […]

Row | Molecule | frequency of ura mutants [1] | number of ura mutants (wild type yeast cell) | microsatellite instability / β-galactosidase activity (293 cells) | uracil requiring clones on 5-FOA selection medium ([2]; methanol induced culture) | colonies resistant to 5-FOA ([2]; uninduced culture)
1 | CCOS(C)(=O)=O [EMS, ethyl methane sulfonate] | increase in the frequency of ura mutants | low number of ura mutants | – | – | –
2 | B1 | – | – | high degree of MI leading to an increase in β-galactosidase activity | have clones that are capable of growth on the selection medium | does not have any colonies that are resistant to 5-FOA
3 | B2 | – | – | high degree of MI leading to an increase in β-galactosidase activity | – | –
